Here are results for eleven molecules from patent publication US20190284262A1 (Memorial Sloan Kettering, published 2019).

Experiment [1] has as its target T1, HLA-A*02:01 on T2 cells alone (no peptide added) (human).
T1 construct: TAP-deficient T2 cells without pulsed peptide; negative control target, and the HLA molecule whose stabilisation by peptides is read in the T2 stabilization assay; also called HLA-A*02 molecule; HLA-A2 molecule
In words: flow cytometry, phage on T2 without peptide; secondary only 118, unstained 95.2. (A flow cytometer gives signals particle by particle.)

The target in experiment [2] is T2, R3 (RHAMM-R3) peptide/HLA-A*02:01 complex on T2 cells (human).
T2 construct: Control target of the phage staining of T2 cells; also called T2 cells pulsed with R3 peptide; RHAMM 3 (R3)
In words: flow cytometry, phage on T2 + R3 peptide; secondary only 126, unstained 94.4.

Experiment [3] concerns the target T1, HLA-A*02:01 on T2 cells alone (no …). The experiment can be described thus: flow cytometry, phage on T2 without peptide.
Experiment [4] concerns the target T3, Foxp3-7 peptide/HLA-A*02:01 complex on the cell surface (human).
T3 construct: also called Foxp3-7/HLA-A2 complex
In words: flow cytometry, phage on T2 + Foxp3-7 peptide; secondary only 318, unstained 95.8.

Experiment [5] concerns the target T4, T2+EW (Homo sapiens, UniProt A*02:01).
T4 construct: on the surface of T2 cells; irrelevant control peptide; also called EW peptide/HLA-A*02:01 complex on T2 cells; T2 pulsed with EW peptide
In words: flow cytometry, phage on T2 + EW peptide; secondary only 310, unstained 93.

The target in experiment [6] is T1, HLA-A*02:01 on T2 cells alone (no …). In words: flow cytometry, phage on T2 without peptide; secondary only 320, unstained 91.4.
For experiment [7], the target named is T2, R3 (RHAMM-R3) peptide/HLA-A*02:01 …. In words: flow cytometry, phage on T2 + R3 peptide; secondary only 123, unstained 99.8.
Experiment [8] deals with T1, HLA-A*02:01 on T2 cells alone (no …). The experiment can be described thus: flow cytometry, phage on T2 cells.
Experiment [9] shares this target. In words: flow cytometry, phage on T2 without peptide; secondary only 121, unstained 106.
In experiment [10] the target is T3, Foxp3-7 peptide/HLA-A*02:01 complex on …. In words: flow cytometry, phage on T2 + Foxp3-7 peptide; secondary only 116, unstained 93.8.
The target in experiment [11] is T1, HLA-A*02:01 on T2 cells alone (no …). In words: flow cytometry, phage on T2 without peptide; secondary only 100, unstained 99.5.
Experiment [12] deals with T4, T2+EW. The experiment can be described thus: flow cytometry, phage on T2 + EW peptide; secondary only 113, unstained 94.7.
The target in experiment [13] is T3, Foxp3-7 peptide/HLA-A*02:01 complex on …. The experiment can be described thus: flow cytometry, phage on T2 + Foxp3-7 peptide; secondary only 133, unstained 103.

B1: (FoxP2)_#13 (scFv)
scFv (VL-linker-VH-His/HA tag): LPVLTQPPSVSVAPGKTARITCGGNNIGSKSVHWYQQKPGQAPVLVIYYDSDRPSGIPERFSGSNSGNTATLTISRVEAGDEADYYCQVWDSSSAYVFGTGTKVTVLGSRGGGGSGGGGSGGGGSLEMAQVQLQQSGPGLVKPSQTLSLTCAISGDSVSSNSAAWNWIRQSPSRGLEWLGRTYYRSKWYNDYAVSVKSRITINPDTSKNQFSLQLNSVTPEDTAVYYCARYYSTSLDSWGQGTLVTVSSTSGQAGQHHHHHHGAYPYDVPDYAS
notes: also called EXT019-13 scFv phage clone
On to B1, for which the “Median:FITC-A” value was found to be 143 in experiment [1] and 141 in experiment [2]. Further, in experiment [3], the binding result is reported as “no binding”.

B2: #30 (scFv)
scFv: SYVLTQPPSVSVAPGQTARMTCEGSNLGSKSVHWYQQKPGQAPVLVVHDDSDRPSGIPDRFSGSKSGNTATLTISRVEAGDEADYYCQVWHSSSDHYVFGTATKVTVLGSRGGGGSGGGGSGGGGSLEMAQVQLVQSGAEVKKPGASVKVSCKASGYTFTNYYIHWVRQAPGQGLEWMGIIRPSGGITNYAQKFQGRVSMTRDTSTSTVYMELSSLRSEDTAVYYCARSWHENSGVDSWGQGTLVTVSSTSGQAGQHHHHHHGAYPYDVPDYAS
notes: also called EXT017-30; EXT017-30 scFv phage clone
On to B2, for which the “Median:FITC-A” value came out at 1130 in experiment [4], 378 with T2+EW [5] and 354 in [6].

B3: EXT017-26 scFv phage clone (scFv)
scFv: SYVLTQPPSVSVAPGQTARITCGGTDIRRKTVHWYQQKPGLAPVLVLYDDSDRPSGIPERFSGSNSGNTATLTISRVEGGDEADYYCQVWDNDNDHYVFGPGTKVTVLGSRGGGGSGGGGSGGGGSLEMAEVQLVQSGAEVKKPGASVKVSCKASGYTFTNYYIHWVRQTPGEGLEWMGIIRPSGGNTNYAQKFQGRVTMTRDTSTRTVYMELSSLRSEDTAVYYCARSWDTFSDEWGQGTLVTVSSTSGQAGQHHHHHHGAYPYDVPDYAS
notes: also called phage clone #26
On to B3, for which the “Median:FITC-A” value in experiment [7] came to 144; in experiment [4], 1880; in the experiment with T2+EW [5], 375; in experiment [6], 385; in [9], 146; in experiment [10] it was 410. Also, the binding result in [8] was “no binding”.

B4: (FoxP2)_#4 (scFv)
scFv (VL-linker-VH-His/HA tag): QPVLTQPPSVSVAPGKTARITCGGNNIGSKSVHWYQQKPGQAPVLVIYYDSDRPSGIPERFSGSNSGNTATLTISRVEAGDEADYYCQVWDSSSDHPVFGGGTKLTVLGSRGGGGSGGGGSGGGGSLEMAQVQLVQSGAEVKKPGSSVKVSCKASGGTFSSYAISWVRQAPGQGLEWMGGIIPIFGTANYAQKFQGRVTITADESTSTAYMELSSLRSEDTAVYYCARSSYWWTSDRWGQGTLVTVSSTSGQAGQHHHHHHGAYPYDVPDYAS
notes: also called EXT019-4; EXT019-04 scFv phage clone
Regarding B4, the “Median:FITC-A” value in [1] was determined as 147; in experiment [2], 145. For the same molecule, the binding result in experiment [3] is “no binding”.

B5: (FoxP2)_#15 (scFv)
scFv (VL-linker-VH-His/HA tag): SYVLTQPPSVSVAPGETASITCGANNIGSESVHWYQQKSGQAPVLVIYYDSDRPSGIPERFSGSNSDNTATLTISRVEAGDEADYYCQVWDHINDHYVFGSGTKVTVLGSRGGGGSGGGGSGGGGSLEMAEVQLVESGGGLAQPGGSLRLSCAASGFSFSNYAMSWVRQAPGTGLEWVAGISGRGGSIHYADSVKGRFTISRDNSQSTVFLQMNNLGAEDTAIYYCAKSSEDYYFYHMDAWGIGTTVTVSSTSGQAGQHHHHHHGAYPYDVPDYAS
notes: also called EXT019-15 scFv phage clone
B5: the “Median:FITC-A” value in experiment [1] and in experiment [2] was 145 each time. In experiment [3], the binding result is “no binding”.

B6: (FoxP2)_#6 (scFv)
scFv (VL-linker-VH-His/HA tag): QSVVTQPPSVSGAPGQGVTIPCTGSSSNIGAGYDVHWYQQLPGTAPKLLIYGNNNRPSGVPDRFSGSRSGSSASLAITGLQAEDEADYYCQSYDSSLSDVVFGGGTKLTVLGSRGGGGSGGGGSGGGGSLEMAEVQLVQSGAEVKKPGESLKISCKGSGYNFASEWIGWVRQMPGKGLEWMGLIYPAESEITYSPSFQGQVTISVDKSISTAYLQWSSLKASDTAMYYCARAWDANYIYMDIWGQGTLVTVSSTSGQAGQHHHHHHGAYPYDVPDYAS
notes: also called EXT019-6; EXT019-06 scFv phage clone
Consider B6, for which the figures for the “Median:FITC-A” value in experiment [1] and in experiment [2] were 146 and 157, respectively. Moreover, in experiment [3], the binding result is “no binding”.

B7: (FoxP2)_#8 (scFv)
scFv (VL-linker-VH-His/HA tag): QSVLTQPPSVSEAPRQRVTISCSGSSSNIGNNAVNWYQQLPGKAPKLLIYYDDLLPSGVSDRFSGSKSGTSASLAISGLQSEDEADYYCAAWDDSLNGPVFGTGTKVTVLGSRGGGGSGGGGSGGGGSLEMAEVQLVQSGAEVKKPGASVKVSCKASGYNFTSYGISWVRQAPGQGLEWMGWISAYNGNTNYAQKLQGRVTMTTDTSTSTAYMELRSLRSDDTAVYYCARDWDYDFLTGWDGMDVWGQGTTVTVSSTSGQAGQHHHHHHGAYPYDVPDYAS
notes: also called EXT019-8; EXT019-08 scFv phage clone
B7: the “Median:FITC-A” value is 141 in [1] and 142 in experiment [2]. For the same molecule, the binding result in experiment [3] is recorded as “no binding”.

B8: (FoxP2)_#12 (scFv)
scFv (VL-linker-VH-His/HA tag): SYELTQPPSVSVAPGKTARITCGGNNIGSKSVHWYQQKPGQAPVLVIYYDSDRPSGIPERFSGSNSGNTATLTISRVEAGDEADYYCQVWDSSSDHRVFGGGTKVTVLGSRGGGGSGGGGSGGGGSLEMAEVQLVESGGGLVQPGGSLRLSCAASGFTFSSYWMNWVRQAPGKGLEWVANIKQDGSEKNYVDSVKGRFTISRDNAKNSLYLQMNSLRGEDTAVYYCARYGGGPYDSWGQGTLVTVSSTSGQAGQHHHHHHGAYPYDVPDYAS
notes: also called EXT019-12 scFv phage clone
B8: the “Median:FITC-A” value in [1] and in experiment [2] was 151 throughout. Moreover, the binding result in [3] is “no binding”.

B9: (FoxP2)_#20 (scFv)
scFv (VL-linker-VH-His/HA tag): SYVLTQPPSVSVAPGKTARITCGGNNIGSKSVHWYQQKPGQAPVLVIYYDSDRPSGIPERFSGSNSGNTATLTISRVEAGDEADYYCQVWDSSSDRVVFGGGTKLTVLGSRGGGGSGGGGSGGGGSLEMAQVQLQQSGPGLVKPSQTLSLTCAISGDSISSKSAAWNWIRQSPSRGLEWLGRTYYRSKWYYEYAPSVRSRITINRDTSKNQFSLQLNSVTPEDTAVYYCARSTGTFDYWGQGTLVTVSSTSGQAGQHHHHHHGAYPYDVPDYAS
notes: also called EXT019-20 scFv phage clone
As to B9, the “Median:FITC-A” value in experiment [1] worked out at 149; in experiment [2], 148. The binding result in experiment [3] is “no binding”.

B10: EXT017-9 scFv phage clone (scFv)
scFv: QSALTQPASASGSPGQSVTISCTGTSSDVGGYNYVSWYQQHPGKAPKLMIYEVSKRPSGVPDRFSGSKSGNTASLTVSGLQAEDEADYYCSSYAGSNNVVFGGGTKLTVLGSRGGGGSGGGGSGGGGSLEMAEVQLVQSGAEVKKPGASVKISCKASRYTFTNYYIHWVRQAPGQGLEWMGIINPSGGSTTYPQNFQGRLTMTRDTSTSTVYMELSSLRSEDTAMYYCARGWSGYDPGDFWGQGTLVTVSSTSGQAGQHHHHHHGAYPYDVPDYAS
notes: also called phage clone #9
For the molecule B10, the “Median:FITC-A” value in experiment [7] turned out to be 144; in experiment [11], 149; with T2+EW [12], 151; in experiment [9], 150; in [13], 1730; in experiment [10], 287. Also, the binding result in experiment [8] is given as “no binding”.

B11: (FoxP2)_#9 (scFv)
scFv (VL-linker-VH-His/HA tag): SYELTQPPSVSVAPGKTARITCGGNNIGSKSVHWYQQKPGQAPVLVIYYDSDRPSGIPERFSGSNSGNTATLTISRVEAGDEADYYCQVWDSSSDHWVFGGGTKLTVLGSRGGGGSGGGGSGGGGSLEMAQVQLVQSGGGLVQPGGSLKLSCAASGFAFSGSSLHWVRQASGKGLEWVGRITSKAYNYATLYAASVKGRFTISRDDSKNTAYLQMNSLQTEDTAVYYCTQTGDSSAYWGQGTLVTVSSTSGQAGQHHHHHHGAYPYDVPDYAS
notes: also called EXT019-9; EXT019-09 scFv phage clone
Consider B11, for which the “Median:FITC-A” value in experiment [1] worked out at 140; in [2], 148. Further, the binding result in experiment [3] was “no binding”.
